Reference: publication doi:10.1101/2020.05.29.124305 (bioRxiv, 2020)

Molecular target: the molecule itself
Assay: cryo-EM structure

B1: Human ASCT2 (Alanine-Serine-Cysteine Transporter 2, SLC1A5) (natural protein)
chain: MVADPPRDSKGLAAAEPTANGGLALASIEDQGAAAGGYCGSRDQVRRCLRANLLVLLTVVAVVAGVALGLGVSGAGGALALGPERLSAFVFPGELLLRLLRMIILPLVVCSLIGGAASLDPGALGRLGAWALLFFLVTTLLASALGVGLALALQPGAASAAINASVGAAGSAENAPSKEVLDSFLDLARNIFPSNLVSAAFRSYSTTYEERNITGTRVKVPVGQEVEGMNILGLVVFAIVFGVALRKLGPEGELLIRFFNSFNEATMVLVSWIMWYAPVGIMFLVAGKIVEMEDVGLLFARLGKYILCCLLGHAIHGLLVLPLIYFLFTRKNPYRFLWGIVTPLATAFGTSSSSATLPLMMKCVEENNGVAKHISRFILPIGATVNMDGAALFQCVAAVFIAQLSQQSLDFVKIITILVTATASSVGAAGIPAGGVLTLAIILEAVNLPVDHISLILAVDWLVDRSCTVLNVEGDALGAGLLQNYVDRTESRSTEPELIQVKSELPLDPLPVPTEEGNPLLKHYRGPAGDATVASEKESVM
In the case of B1, the “stoichiometry N” value is reported as 3.
